Test results published in patent publication US7880021B2, “Compounds and kits for the detection and the quantification of cell apoptosis” (Centre National de la Recherche Scientifique (CNRS), priority 2005, dated 2011).
Numbered stars: 1 amine (or outer) side, 2 acyl side, 3 side chain; on linkers, the order of the positions; unused ones are H or OH. Bridge positions count the residues as written; N and C are the ends. Square brackets hold non-standard residues; d marks the D form. Peptide text beside a SMILES is read from it. I, II: the chains in the order shown. Actinocin(9to1) = Cc1c2oc3c(C)ccc(C(=O)[*:1])c3nc-2c(C(=O)[*:2])c(N)c1=O; NMeV = CN[C@H](C(=O)O)C(C)C; Sar = CNCC(=O)O

What was measured:
[1] = tested on: CEM T cells; assay: Determination of hypodiploid DNA with PI by flow cytometry; assay type: cell-based, human; conditions: actinomycin D 0.5 μg/ml for 18 h; mean±SEM
Procedure: (§1) Human lymphoid CEM T cells were cultured in X-vivo 15 medium (Cambrex, France) at 37° C. in humidified 5% CO2 atmosphere. Cell viability was checked by trypan blue exclusion. Cells were seeded at 5×10^5 cells/ml in the presence or absence of actinomycin D (0.5 μg/ml) for 18 h. Cells were pelleted by centrifugation at 1500 rpm for 5 min and resuspended at 1×10^6 cells/ml in X-vivo 15 medium for experiments.
To verify the proportion of apoptotic cells, measurements of hypodiploid DNA with PI by flow cytometry have been performed. After apoptotic treatment, cells were harvested and numbered. Concentration in a 70% ethanol solution in H2O was adjusted to 5×10^5 cells/ml and fixation was allowed to proceed for at least 1 h at 4° C. Cells were washed once in Hank's balanced salt solution (HBSS) before resuspension in HBSS containing RNAse (0.5 mg/ml), PI (0.1 mg/ml) and incubation for 15 min at room temperature in the dark. Samples were analysed by flow cytometry using the CELLQuest software (Becton Dickinson, San Jose, Calif.). Under these conditions, the content of hypodiploid DNA in CEM T cells was 30±2% (mean±SEM).

[2] = tested on: T lymphocytes; assay: Laser scanning confocal ratiometric imaging of T lymphocytes; assay type: cell-based
Procedure: FIG. 9: Laser scanning confocal imaging of T lymphocytes stained with annexin V-FITC (a) and F2N12S (b and c). Combination of transmission and fluorescence images of cells treated with actinomycin D for 18 hours (please complete this sentence). […] Due to their low binding to annexin V, normal cells are not visualized in the fluorescence images. (b and c) Ratiometric images of normal (b) and actinomycin D-treated (c) cells stained with 0.2 μM F2N12S. […] The size of the images is 60×73.1 μm.
FIG. 10: Time-series of confocal fluorescence ratiometric images of actinomycin D-treated T lymphocytes stained with F2N12S. The cells were treated with actinomycin D for 18 hours and then, incubated with the probe (0.2 μM) for 5 min. Images were recorded at 1 min (a), 10 min (b) and 20 min (c) post incubation. […] The size of the images is 60×73.1 μm.
For collecting cell images, a Laser Scanning Confocal Imaging System MRC-1024 (Bio-Rad) was used. Cells in chambered cover glass were prepared by following the preparation procedure described above. The 442 nm line of a HeCd laser was used as the excitation light source. Emission was collected by using two filters: 485/30 for the N* band and 585LP for the T* band. Collected images were analyzed by the Amira 3.0 software.
To further compare F2N12S and annexinV-derived probes, two-color ratiometric images of F2N12S-labeled cells undergoing apoptosis were recorded by laser scanning confocal microscopy and compared with intensity based images obtained using annexin V-FITC. […] Moreover, the fluorescence intensity of apoptotic cells varies considerably from cell to cell. These differences are difficult to interpret since the intensity depends on the probe concentration as well as on the size and confluence of the cells. […] According to our spectroscopy and flow cytometry data, the latter cells are apoptotic. […] Thus, unlike annexin V-FITC, these probes provide an absolute parameter, the intensity ratio, which can be calibrated, and can characterize the level of apoptosis independently of the probe/cell concentration and the excitation light intensity. In addition, the inventors have observed that in normal cells and cells on the initial steps of apoptosis, the T*/N* intensity ratio is not evenly distributed within the plasma membrane of a given cell. This may indicate an inhomogeneous lipid composition of their plasma membranes that is likely related to the presence of lipid domains.
The inventors also follow apoptotic transformation of the plasma membrane as a function of time. Normal and actinomycin D-treated cells were stained with the corresponding probe and the fluorescence images were subsequently recorded during 20 min. […]

[3] = tested on: T lymphoblastoid cells; assay: Flow cytometry analysis with annexin V-FITC, PI and F2N12S; assay type: cell-based, human
Source text: FIG. 6: Flow cytometry analysis of T lymphoblastoid cells treated by actinomycin D. Cells were stained by annexin V-FITC, PI and F2N12S. In (a), Annexin V-FITC and PI were selectively excited at 488 nm. Cells are sorted into living, dead and apoptotic cell populations. In (b), F2N12S is selectively excited at 407 nm. Living cells are discriminated from apoptotic and necrotic cells. In (c), the PI fluorescence intensities are plotted versus the T*/N* ratio of F2N12S. Living cells are in green, apoptotic cells are in cyan and dead cells are in orange. In (d), the populations sorted using the F2N12S/PI couple were colored according to their response with the annexin V/PI couple. The wavelengths of maximal transmission and bandwidths of used filters are indicated in brackets.
FIG. 7: Comparison of the intensiometric response of annexin V-FITC (a) with the ratiometric fluorescence response of F2N12S (b). Living, dead and apoptotic cells were identified as described in FIG. 6, by using either the annexin V-FITC/PI (a) or the F2N12S/PI (b) couple of dyes.
FIG. 8: Comparison of the response of annexin V-FITC and F2N12S on non-treated T lymphoblastoid cells stained by annexin V-FITC, PI and F2N12S. In (a), annexin V-FITC and PI were selectively excited at 488 nm. In (b), F2N12S is selectively excited at 407 nm. Cells are sorted into living and dead cell populations.
as §1
For the validation of F2N12S in cell cytometry, we used a FASCARIA™ (cell sorter) (BD Biosciences, CA, USA) equipped with an argon laser (488 nm) and a diode laser (407 nm) and emission filters DF30, DF42 and DF20 centered at 530 nm, 585 nm and 610 nm, respectively. The optical pathways corresponding to the argon laser and to the diode laser are independent. Data were analyzed using the FACSDIVA™ (cell sorter) Software (BD Biosciences). The granulation, size and fluorescence intensity were recorded at a rate of ˜1000 cells per second.
T lymphoblastoid cells were treated with actinomycin D and labeled simultaneously by FITC-labeled annexin V, propidium iodide (PI) and F2N12S. […] The emissions of FITC and PI were collected in the spectral regions of 515-545 nm and 600-620 nm, respectively. […] The emission light in this case was collected in two spectral regions: at 515-545 nm to monitor the emission of the N* band and 564-606 nm to collect the emission of the T* band (FIG. 6b). […] The second one is characterized by a high N*/T* intensity ratio (shown in red) and can be assigned to apoptotic and dead cells.
The probe of the invention F2N12S has been combined with PI and the fluorescence intensities of PI have been represented as a function of the T*/N* ratio of F2N12S (FIG. 6c). In this case, the populations of apoptotic and dead cells are clearly discriminated by using the differences in the PI intensities. […] This conclusion was further strengthened when the populations discriminated by the F2N12S/PI couple were colored according to their response with the annexin V-FITC/PI couple (FIG. 6d).

[4] = actinomycin D-treated cells, probe combined with PI

Question: With `Cc1c2oc3c(C)ccc(C(=O)N[C@@H]4C(=O)N[C@H](C(C)C)C(=O)N5CCC[C@H]5C(=O)N(C)CC(=O)N(C)[C@@H](C(C)C)C(=O)O[C@@H]4C)c3nc-2c(C(=O)N[C@@H]2C(=O)N[C@H](C(C)C)C(=O)N3CCC[C@H]3C(=O)N(C)CC(=O)N(C)[C@@H](C(C)C)C(=O)O[C@@H]2C)c(N)c1=O` [actinomycin D, Actinomycin D] (I: T[dV]P[Sar][NMeV] / II: T[dV]P[Sar][NMeV]; ester I:1-I:C, II:1-II:C; linker I:N-II:N via Actinocin(9to1)) as the molecule, how does the “content of hypodiploid DNA” value [1] read?
Answer: The value was 30±2%.

B1: annexin V-FITC: Annexin V labelled with fluorescein isothiocyanate, kit from Immunotech; reference apoptosis marker (protein, UniProt P08758 2-320, looked up)
Annexin A5: AQVLRGTVTDFPGFDERADAETLRKAMKGLGTDEESILTLLTSRSNAQRQEISAAFKTLFGRDLLDDLKSELTGKFEKLIVALMKPSRLYDAYELKHALKGAGTNEKVLTEIIASRTPEELRAIKQVYEEEYGSSLEDDVVGDTSGYYQRMLVVLLQANRDPDAGIDEAQVEQDAQALFQAGELKWGTDEEKFITIFGTRSVSHLRKVFDKYMTISGFQIEETIDRETSGNLEQLLLAVVKSIRSIPAYLAETLYYAMKGAGTDDHTLIRVMVSRSEIDLFNIRKEFRKNFATSLYSMIKGDTSGDYKKALLLLCGEDD
modifications: FITC label
Question: B1 was tested. Which “time-dependent change of the fluorescence images” value ([2]; actinomycin D-treated cells, images recorded during 20 min) did it give?
Answer: Its value is “not possible to detect any time-dependent changes”.

Question: And the “which cells are stained in fluorescence images” value ([2]; normal and actinomycin D-treated cells)?
Answer: Its value is “labels only apoptotic and necrotic cells”.

Question: And the “percentage of apoptotic cells” value [3, 4]?
Answer: The value was 18%.

Question: What about the “percentage of dead cells” value [3, 4] of the same molecule?
Answer: Its value is 49%.

Question: What about the “percentage of living cells” value [3, 4] of the same molecule?
Answer: Its value is 33%.

Question: And the “percentage of dead cells” value ([3]; non-treated T lymphoblastoid cells)?
Answer: The value was 5%.
